# Assay results reported in PMC10397247.
# T1: 4H510-AA
# T1 chain: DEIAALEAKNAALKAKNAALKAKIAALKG
# T2: 4H816-AA
# T2 chain: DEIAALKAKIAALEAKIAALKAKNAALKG
# T3: 4H775-AA
# T3 chain: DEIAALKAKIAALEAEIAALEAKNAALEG
# T4: 4H87-AA
# T4 chain: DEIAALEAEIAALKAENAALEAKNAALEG
# T5: 4H3940-AA
# T5 chain: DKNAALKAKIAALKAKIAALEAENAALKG
# T6: 4H918-bN
# T6 chain: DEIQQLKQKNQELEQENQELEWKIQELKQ
# T7: 4H687-bN
# T7 chain: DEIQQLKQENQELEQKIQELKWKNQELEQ
# T8: 4H717-bN
# T8 chain: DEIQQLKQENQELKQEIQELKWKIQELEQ
# T9: 4H797-bN
# T9 chain: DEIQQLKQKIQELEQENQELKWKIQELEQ
# T10: 4H754-bN
# T10 chain: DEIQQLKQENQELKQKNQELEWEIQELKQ
# T11: 4H967-bN
# T11 chain: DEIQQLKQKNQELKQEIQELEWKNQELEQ
# T12: 4H953-bN
# T12 chain: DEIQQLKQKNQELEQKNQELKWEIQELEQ
# T13: 4H607-bN
# T13 chain: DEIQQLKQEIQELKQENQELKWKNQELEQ
# T14: 4H72-bN
# T14 chain: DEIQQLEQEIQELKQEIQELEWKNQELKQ
# T15: 4H883-bN
# T15 chain: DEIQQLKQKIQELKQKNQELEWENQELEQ
# T16: 4H908-bN
# T16 chain: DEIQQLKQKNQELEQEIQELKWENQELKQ
# T17: 4H568-bN
# T17 chain: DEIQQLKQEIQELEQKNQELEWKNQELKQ
# T18: 4H454-bN
# T18 chain: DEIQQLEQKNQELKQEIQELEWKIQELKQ
# T19: 4H324-AA
# T19 chain: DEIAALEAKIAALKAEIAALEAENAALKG
# T20: 4H63-AA
# T20 chain: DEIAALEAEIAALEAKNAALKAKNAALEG
# T21: 4H341-AA
# T21 chain: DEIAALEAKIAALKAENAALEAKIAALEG
# T22: 4H446-AA
# T22 chain: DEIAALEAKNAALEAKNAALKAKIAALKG
# T23: 4H3619-AA
# T23 chain: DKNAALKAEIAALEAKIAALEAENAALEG
# T24: 4H3629-AA
# T24 chain: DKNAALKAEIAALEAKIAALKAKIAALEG
# T25: 4H3777-AA
# T25 chain: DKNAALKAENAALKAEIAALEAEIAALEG
# T26: 4H3974-AA
# T26 chain: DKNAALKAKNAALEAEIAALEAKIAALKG
# T27: 4H432-AA
# T27 chain: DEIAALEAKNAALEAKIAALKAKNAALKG
# T28: 4H380-AA
# T28 chain: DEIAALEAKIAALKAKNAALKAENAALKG
# T29: 4H3449-AA
# T29 chain: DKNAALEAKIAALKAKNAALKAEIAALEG
# T30: 4H3049-AA
# T30 chain: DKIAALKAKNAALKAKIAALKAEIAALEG
# T31: 4H3094-AA
# T31 chain: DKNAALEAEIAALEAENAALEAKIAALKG
# T32: 4H3915-AA
# T32 chain: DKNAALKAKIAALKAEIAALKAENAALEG
# T33: 4H2961-AA
# T33 chain: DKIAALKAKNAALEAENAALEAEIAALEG
# T34: 4H492-bH
# T34 chain: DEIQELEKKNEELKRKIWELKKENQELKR
# T35: 4H741-bH
# T35 chain: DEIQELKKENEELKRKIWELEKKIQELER
# Key:
# [1] = molecular target: T1, 4H510-AA; assay: two-hybrid library CCmax; conditions: mean of both orientations;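 further: natural log of median RNA to DNA barcode read ratio; higher means stronger binding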
# [2] = molecular target: T2, 4H816-AA; assay: two-hybrid library CCmax; conditions: mean of both orientations;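 further: natural log of median RNA to DNA barcode read ratio; higher means stronger binding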
# [3] = molecular target: T3, 4H775-AA; assay: two-hybrid library CCmax; conditions: mean of both orientations;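 further: natural log of median RNA to DNA barcode read ratio; higher means stronger binding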
# [4] = molecular target: T4, 4H87-AA; assay: two-hybrid library CCmax; conditions: mean of both orientations;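 further: natural log of median RNA to DNA barcode read ratio; higher means stronger binding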
# [5] = molecular target: T5, 4H3940-AA; assay: two-hybrid library CCmax
# [6] = molecular target: T6, 4H918-bN; assay: two-hybrid library CCNG1
# [7] = molecular target: T7, 4H687-bN; assay: two-hybrid library CCNG1
# [8] = molecular target: T8, 4H717-bN; assay: two-hybrid library CCNG1
# [9] = molecular target: T9, 4H797-bN; assay: two-hybrid library CCNG1
# [10] = molecular target: T10, 4H754-bN; assay: two-hybrid library CCNG1
# [11] = molecular target: T11, 4H967-bN; assay: two-hybrid library CCNG1
# [12] = molecular target: T12, 4H953-bN; assay: two-hybrid library CCNG1
# [13] = molecular target: T13, 4H607-bN; assay: two-hybrid library CCNG1
# [14] = molecular target: T14, 4H72-bN; assay: two-hybrid library CCNG1
# [15] = molecular target: T15, 4H883-bN; assay: two-hybrid library CCNG1
# [16] = molecular target: T16, 4H908-bN; assay: two-hybrid library CCNG1
# [17] = molecular target: T17, 4H568-bN; assay: two-hybrid library CCNG1
# [18] = molecular target: T18, 4H454-bN; assay: two-hybrid library CCNG1
# [19] = molecular target: T19, 4H324-AA; assay: two-hybrid library CCmax; conditions: mean of both orientations
# [20] = molecular target: T20, 4H63-AA; assay: two-hybrid library CCmax; conditions: mean of both orientations
# [21] = molecular target: T21, 4H341-AA; assay: two-hybrid library CCmax; conditions: mean of both orientations
# [22] = molecular target: T22, 4H446-AA; assay: two-hybrid library CCmax; conditions: mean of both orientations
# [23] = molecular target: T23, 4H3619-AA; assay: two-hybrid library CCmax; conditions: mean of both orientations
# [24] = molecular target: T24, 4H3629-AA; assay: two-hybrid library CCmax; conditions: mean of both orientations
# [25] = molecular target: T25, 4H3777-AA; assay: two-hybrid library CCmax; conditions: mean of both orientations
# [26] = molecular target: T26, 4H3974-AA; assay: two-hybrid library CCmax; conditions: mean of both orientations
# [27] = molecular target: T27, 4H432-AA; assay: two-hybrid library CCmax; conditions: mean of both orientations
# [28] = molecular target: T28, 4H380-AA; assay: two-hybrid library CCmax; conditions: mean of both orientations
# [29] = molecular target: T29, 4H3449-AA; assay: two-hybrid library CCmax; conditions: mean of both orientations
# [30] = molecular target: T30, 4H3049-AA; assay: two-hybrid library CCmax; conditions: mean of both orientations
# [31] = molecular target: T31, 4H3094-AA; assay: two-hybrid library CCmax; conditions: mean of both orientations
# [32] = molecular target: T32, 4H3915-AA; assay: two-hybrid library CCmax; conditions: mean of both orientations
# [33] = molecular target: T33, 4H2961-AA; assay: two-hybrid library CCmax; conditions: mean of both orientations
# [34] = molecular target: T34, 4H492-bH; assay: two-hybrid library CCNG1
# [35] = molecular target: T35, 4H741-bH; assay: two-hybrid library CCNG1
binder,measurement,setting,value
DKNAALKAKIAALKAKIAALEAENAALKG [4H3940-AA],interaction score,[1],-1.47
same,interaction score,[2],-0.0778
same,interaction score,[3],-0.249
same,interaction score,[4],-0.615
same,interaction score,[5],0.422
DEIQQLEQKNQELKQEIQELEWKIQELKQ [4H454-bN],interaction score,[6],-0.834
same,interaction score,[7],1.02
same,interaction score,[8],0.0875
same,interaction score,[9],-0.833
same,interaction score,[10],-0.587
same,interaction score,[11],-0.354
same,interaction score,[12],-1.26
same,interaction score,[13],0.145
same,interaction score,[14],0.494
same,interaction score,[15],-0.143
same,interaction score,[16],0.201
same,interaction score,[17],0.196
same,interaction score,[18],-0.79
DKIAALKAKNAALEAEIAALEAENAALEG [4H2947-AA],interaction score,[19],-1.49
same,interaction score,[20],-1.61
same,interaction score,[21],-1.12
same,interaction score,[22],-0.0537
same,interaction score,[23],-1.85
same,interaction score,[24],-1.56
same,interaction score,[25],-1.93
same,interaction score,[26],-1.36
same,interaction score,[27],2.09
same,interaction score,[28],-1.17
same,interaction score,[29],-0.39
same,interaction score,[30],-0.853
same,interaction score,[31],1.06
same,interaction score,[32],-1.59
same,interaction score,[33],-2.03
DEIQELEKKNEELKRKIWELKKENQELKR [4H492-bH],interaction score,[34],0.6
same,interaction score,[35],-0.317
